Consider 1 compound from patent publication US12539335B2, “Tricyclic polypeptide conjugated drug and use thereof” (CONJUSTAR (ZHUHAI) BIOLOGICS CO., LTD., priority 2021, dated 2026).

Structures are written as SMILES. Counter-ions that a name gives are not always drawn. Starred links: 1 amine or outer side, 2 acyl side, 3 side chain; linkers in the order of their positions; H or OH if unused. Positions of bridges follow the written chain, without caps; N, C: chain ends. Non-standard residues stand in square brackets, D forms with d. Residues, ends and D or L forms follow the SMILES beside them. Chains are numbered I, II in the order given. *: point of attachment. TATA = O=C(CC[*:1])N1CN(C(=O)CC[*:2])CN(C(=O)CC[*:3])C1; Dolaproine = CO[C@@H]([C@@H]1CCCN1)[C@@H](C)C(=O)O; Dil = CC[C@H](C)[C@H](NC)[C@@H](CC(=O)O)OC; 1Nal = N[C@@H](Cc1cccc2ccccc12)C(=O)O; X2 = O=C(CCCC(=O)[*:2])NCCC(=O)[*:1]; PABC = O=C(OCc1ccc(N[*:1])cc1)[*:2]; X1 = C[C@@H](N*)[C@@H](O)c1ccccc1; Hyp = O=C(O)[C@@H]1C[C@@H](O)CN1; hArg = N=C(N)NCCCC[C@H](N)C(=O)O; Cit = NC(=O)NCCC[C@H](N)C(=O)O; Pen = CC(C)(S)[C@H](N)C(=O)O; NMeV = CN[C@H](C(=O)O)C(C)C; Sar = CNCC(=O)O

Data set [1] in a line: Metabolic stability in kidney S9, CD-1 mice. The class given is in vitro ADME. The following applies: mouse; CD-1 mice kidney S9. On the procedure:
Test Example 8: Metabolic Stability of the Compounds of the Present Invention in Kidney S9 from Mice, Rats, Cynomolgus Macaques, and Humans
To investigate the metabolic stability of the compounds of the present invention in kidney S9 from mice, rats, Cynomolgus macaques, and humans.
Materials: Kidney S9 from CD-1 mice, SD rats, Cynomolgus macaques, and humans were purchased from BioIVT or XenoTech LLC and stored in a −80° C. refrigerator.
Experimental procedure: Eight 96-well plates, designated T0, T5, T15, T30, T45, T60, Blank, and NCF60, were prepared. The first six incubation plates corresponded to reaction time points of 0, 5, 15, 30, 45, and 60 minutes, respectively. No test sample or control compound was added to the Blank plate.
The T0, T5, T15, T30, T45, and T60 plates were added with a 2 μL working solution of the test sample (10 mM of a solution of the compound to be tested in DMSO, diluted to 100 μM with 100% acetonitrile) and 100 μL of a S9 working solution (kidney S9 protein concentration of 1.0 mg/mL), and the Blank plate was only added with the S9 working solution. The above incubation plates were then placed in a 37° C. water bath for pre-incubation for about 10 minutes.
At the end of the pre-incubation, 98 μL of an auxiliary enzyme working solution was added to each sample well except the TO plate to start the reaction. […]

Data set [2] in a line: Stability in plasma, SD rats. The class given is in vitro ADME. The following applies: Sprague-Dawley (SD), rat, 37° C. On the procedure: (§1) Test Example 9: Stability Analysis of the Compounds of the Present Invention in Plasma from Different Species
(§2) To test the stability of the compounds of the present invention in plasma from SD rats, Cynomolgus macaques, and humans.
(§3) The corresponding incubation plates, including T0, T10, T30, T60, T120, and T240 incubation plates, were added with a 2 μL working solution of the compound to be tested (100 μM). Three parallel wells were prepared for each sample. Then, 98 μL of blank plasma from SD rats, Cynomolgus macaques, and humans was added to the corresponding incubation plates to which the working solution had been added. All samples were incubated in a 37° C. water bath. […] At the end of each incubation time point, the corresponding incubation plate was removed, added with stop buffer, precipitated, and centrifuged for 20 minutes. Then, 150 μL of the supernatant was analyzed by the LC-MS/MS method. The concentration of the compound to be tested in the sample was semi-quantitatively determined by the liquid chromatography-tandem mass spectrometry (LC-MS/MS) method.

Data set [3] in a line: Metabolic stability in hepatocytes, Cynomolgus macaques. It is filed as in vitro ADME. The following applies: cynomolgus macaque, hepatocytes (cryopreserved, suspension), 0.5×10^6 cells/mL. The procedure:
Test Example 7: Metabolic Stability of the Compounds of the Present Invention in Hepatocytes from Mice, Rats, Cynomolgus Macaques, and Humans
To investigate the metabolic stability of the compounds of the present invention in hepatocytes from mice, rats, Cynomolgus macaques, and humans.
Incubations were performed in 96-well plates using an external extraction method. Several 96-well sample precipitation plates, designated T0, T15, T30, T60, T90, TO-MC, T90-MC, and blank matrix, were prepared, respectively. The recovery culture medium and incubation culture medium were removed in advance and placed in a 37° C. water bath for preheating. […]
At the end of the incubation at the corresponding time point, the incubation plates were removed, from which 25 μL of a compound mixture with the cells and a control compound mixture with the cells were removed and added to sample plates containing 125 μL of stop buffer, respectively. […] All samples were mixed uniformly and then analyzed by the LC-MS/MS method.
The concentration of the compound to be tested and the concentration of the control in the sample were semi-quantitatively determined by the liquid chromatography-tandem mass spectrometry (LC-MS/MS) method without a standard curve and quality control sample. […]

The nature of data set [4]: Stability in plasma, humans. It is filed as in vitro ADME. The following applies: human, 37° C. The procedure: as §1, §2, §3
A short description of data set [5]: Pharmacokinetic analysis in Cynomolgus macaque plasma. The class given is in vivo. The following applies: cynomolgus monkey, Cynomolgus macaques, single IV 1 mg/kg, plasma. The procedure:
Test Example 6: Pharmacokinetic Analysis in Cynomolgus Macaque Plasma
To test the pharmacokinetics of the compounds of the present invention in Cynomolgus macaques.
The pharmacokinetic characteristics of the compound after intravenous injection were tested according to a standard protocol in Cynomolgus macaques. The compound to be tested was formulated into a clear solution using 25 mM L-histidine (pH=7) in 10% sucrose as a vehicle. Cynomolgus macaques were given a single intravenous injection of 1 mg/kg of the compound to be tested. Whole blood was collected at time points of 0.083, 0.25, 0.5, 1, 2, 4, 8, and 24 hours after administration to get plasma. The concentration of the compound to be tested and the concentration of its potential metabolite MMAE were analyzed by the LC-MS/MS method, and the pharmacokinetic parameters were calculated by Phoenix WinNonlin software.

In data set [1], `CC[C@H](C)[C@@H]([C@@H](CC(=O)N1CCC[C@H]1[C@H](OC)[C@@H](C)C(=O)N[C@H](C)[C@@H](O)c1ccccc1)OC)N(C)C(=O)[C@@H](NC(=O)[C@H](C(C)C)N(C)C(=O)OCc1ccc(NC(=O)[C@H](CCCNC(N)=O)NC(=O)[C@@H](NC(=O)CCCC(=O)NCCC(=O)N(C)CC(=O)N(C)CC(=O)N(C)CC(=O)N(C)CC(=O)N(C)CC(=O)N(C)CC(=O)N(C)CC(=O)N(C)CC(=O)N(C)CC(=O)N(C)CC(=O)N[C@H]2CCCCNC(=O)C[C@@H](C(=O)N[C@H]3CSCCC(=O)N4CN5CN(C4)C(=O)CCSC(C)(C)[C@H](NC(=O)[C@@H](CC(=O)O)NC(=O)[C@H](Cc4cccc6ccccc46)NC(=O)[C@@H]4CCCN4C3=O)C(=O)N[C@@H](CCSC)C(=O)N[C@@H](CCCCNC(=N)N)C(=O)N[C@@H](CC(=O)O)C(=O)N[C@@H](Cc3c[nH]c4ccccc34)C(=O)N[C@@H](CO)C(=O)N[C@@H]([C@@H](C)O)C(=O)N3CCC[C@H]3C(=O)N3C[C@H](O)C[C@H]3C(=O)N[C@@H](Cc3c[nH]c4ccccc34)C(=O)N[C@H](C(N)=O)CSCCC5=O)NC(=O)CN(C)C2=O)C(C)C)cc1)C(C)C` [Acetate salt of PDC_2] (I: [Sar][Sar][Sar][Sar][Sar][Sar][Sar][Sar][Sar][Sar]K[Sar]DCP[1Nal][dD][Pen]M[hArg]DWSTP[Hyp]WC-NH2 / II: V[Cit][PABC][NMeV]V[Dil][Dolaproine]-X1; lactam I:11-I:13; linker I:14-I:18-I:28 via TATA; linker I:N-II:N via X2) had a half-life at 1 μM above 2.42 h and a microsomal CLint at 1 μM below 9.6 µL/min/mg. In data set [2], the half-life at 2 μM was above 9.63 h. The compound further yielded a half-life at 1 μM in data set [3] above 3.61 h. The CLint scaled at 1 μM in data set [3] (read-out: CLint (liver)) was below 23 mL/min/kg. Further, in data set [4], the half-life at 2 μM was above 9.63 h. In data set [5], this compound showed an AUC(0-t) of 1 µM·h, a C0 of 3.1 µM, a clearance of 3.6 mL/min/kg and a half-life of 1.5 h. Besides, in data set [5] (read-out: Vdss), the Vd was determined as 0.2 L/kg.

A word on the half-life: it is the time needed for the level to fall by half in the phase considered. The term microsomal CLint denotes a measure of how fast metabolising enzymes remove a compound, apart from limits set by blood flow. Read a high microsomal CLint as rapid turnover. Broadly, the AUC(0-t) is exposure summed from dosing to a finite time, without extrapolation to infinity. A lower AUC(0-t) goes with low exposure. As a reminder, the clearance is the volume of plasma or blood freed of the substance per unit of time.
